Laboratory results published in patent publication US20100021474.

Molecular target: Kunitz domain inhibitor KD1 derived from hepatocyte growth factor activator inhibitor-1B (HAI-1B) (UniProt O43278)
Sequence (O43278 246-303): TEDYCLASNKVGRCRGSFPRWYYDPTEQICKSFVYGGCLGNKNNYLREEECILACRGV

Chain of soluble form of HEPSIN comprising the entire extracellular domain (human HEPSIN Arg45-Leu417, His-tagged) (chain, as listed by the source): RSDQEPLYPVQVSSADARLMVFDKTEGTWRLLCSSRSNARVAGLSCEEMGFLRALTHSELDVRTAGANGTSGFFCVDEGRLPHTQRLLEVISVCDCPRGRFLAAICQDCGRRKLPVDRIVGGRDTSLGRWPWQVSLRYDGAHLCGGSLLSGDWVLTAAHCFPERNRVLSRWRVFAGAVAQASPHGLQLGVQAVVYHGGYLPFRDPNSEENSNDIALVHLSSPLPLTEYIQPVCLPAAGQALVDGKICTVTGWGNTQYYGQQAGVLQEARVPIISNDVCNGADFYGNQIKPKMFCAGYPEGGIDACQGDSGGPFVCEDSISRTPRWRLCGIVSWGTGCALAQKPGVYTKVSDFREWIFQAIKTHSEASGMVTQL

soluble form of HEPSIN comprising the entire extracellular domain (human HEPSIN Arg45-Leu417, His-tagged)
HEPSIN activity in a chromogenic substrate assay with the para-nitroanilide substrate S2366: completely inhibited HEPSIN activity at a concentration of 50 nM
